Experimental data from patent publication US9835616B2, “In vitro method for assessing cytokine storm responses” (IMPERIAL INNOVATIONS LTD., priority 2013, dated 2017).

Columns and labels:
Format in all cases: cell-based, human
HUVEC = HUVEC mono-culture, CXCL8 by ELISA; details: 10 μg/ml, 24 h, FIG. 3A
Procedure: (§1) FIG. 3A-B HUVEC (A) and mixed donor BOEC (B) plus PBMC mono and co-culture bioassay data. PBMCs were added to HUVEC (A) or BOEC from different donors (B) after 24 h. For monocultures vehicle media was added. At the same time cultures were treated +/− vehicle, ANC28 (TGN1412-like superagonist) (10 μg/ml), Campath (10 μg/ml), Avastin (10 μg/ml) or Arzerra (10 μg/ml) for 24 h. Data are mean±SEM (A; n=3) (B; n=3). Statistical significance between treatments was determined by one-way ANOVA followed by Bonferroni's Multiple Comparison test (*p<0.05)
Plates were incubated at 37° C., 5% CO2.
In order to compare data from our same-donor assay with the current state-of-the-art assays^1,3,17, we ran parallel experiments using HUVECs as the detector endothelial cell model. PBMCs again released low levels of CXCL8 that was not increased by any of the biotherapetuics tested (FIG. 3A). HUVEC released relatively higher basal levels of CXCL8 that were not increased by anti-CD28 superagonist or Campath. […] The basis for these different results cannot be investigated further as HUVEC donors, unlike BOEC, cannot be easily traced and studied further. Similar results were found when PBMCs were added to BOECs from a different donor. Importantly, co-cultures of HUVEC and PBMC (from two donors) responded to TGN1412-like superagonist (ANC28) and Campath. This captures fully what is already know for this assay which, since the TGN1412 phase 1 trial, is as used as the gold standard assay to test biotherapeutics at the preclinical stage^1,17,18. […] This immune activation response in control or other conditions is likely due to the mixing of tissue from different donors and is a serious limitation for the HUVEC or other similar assays, but one that is totally avoided by our ‘same donor’ assay.

[1] = system: co-cultures of HUVEC and PBMC; assay: HUVEC plus PBMC co-culture assay (two donors), CXCL8; details: HUVEC + PBMC co-culture from two donors, 10 μg/ml, 24 h, FIG. 3A
Procedure: as §1
Supernatants were discarded from each tube.
In order to compare data from our same-donor assay with the current state-of-the-art assays^1,3,17, we ran parallel experiments using HUVECs as the detector endothelial cell model. PBMCs again released low levels of CXCL8 that was not increased by any of the biotherapetuics tested (FIG. 3A). HUVEC released relatively higher basal levels of CXCL8 that were not increased by anti-CD28 superagonist or Campath. […] The basis for these different results cannot be investigated further as HUVEC donors, unlike BOEC, cannot be easily traced and studied further. Similar results were found when PBMCs were added to BOECs from a different donor. Importantly, co-cultures of HUVEC and PBMC (from two donors) responded to TGN1412-like superagonist (ANC28) and Campath. […]

[2] = system: same donor BOEC: PBMC co-culture; assay: MSD 9-plex pro-inflammatory cytokine array on matched BOEC:PBMC co-cultures; details: 10 μg/ml, 24 h, FIG. 5
Procedure: FIG. 5A-C Cytokine release data from MSD analysis. Measurements were carried out using an MSD 10-spot 9-plex Pro-Inflammatory Assay (see methods). Data are mean±SEM (n=5 from matched 5 donors). Statistical testing was carried out between 5 donors by one-way ANOVA followed by Dunnett's multiple comparison test comparing responses with drug to respective control only (*p<0.05).
Plates were then incubated for 24 h.
To further analyse the cytokines released by matched BOEC and PBMC co-cultures as well as respective monocultures following stimulation with biologics an MSD (Meso Scale Discovery, USA) platform analysis was used. Human pro-inflammatory 9-Plex MULTISPOT 96-well-10 spot MSD plates were purchased from MSD (Gaithersburg, Md.) (Cat no. N05007A-1). Samples were diluted 1:10 in Lonza-EGM2 10% FBS/RPMI mix and added to the MSD plate. The immunoassay was carried out according to manufacturer's instructions. Plates were read using an MSC Sector Imager 2400 and analysed using MSD Discovery® Workbench software. Cytokines analysed were IL-2, CXCL8 (IL-8), IL-12q70, IL-1β, GM-CSF, IFNγ, IL-6, IL-10 and TNFα.

Substance | CXCL8 release (HUVEC) | CXCL8 release [1] | GM-CSF release [2] | IL-6 release [2] | IL-8 release [2]
alemtuzumab [Campath] | not increased | responded | tendency to elevate | tendency to elevate | tendency to elevate
bevacizumab [Avastin] | tendency to respond |  |  |  | 
ofatumumab [Arzerra] | tendency to respond |  |  |  | 
